The values below come from patent US20230340555A1, “PRODUCTION OF GLYCOSYLATED CANNABINOIDS” (WILLOW BIOSCIENCES, INC., priority 2020, published 2023).

The test system of the experiment is CN3 yeast strain host cells. Nature of the experiment: Detection of glycosylated cannabinoids and cannabinoid precursors in yeast cells expressing UDP-glycosyl transferase (HPLC-MS). The arrangement: key to CBDA-glc / OLA-glc / CBGA-glc / CBGA-(glc)2 / CBD-glc / CBD-(glc)2 / OLA-(glc)2 / CBGA-glucuronic acid: (+) represents the lowest detected quantities; (++), (+++), and (++++) signify relative increasing intermediate detected levels; (++), (+++), and (++++) signify relative increasing intermediate detected levels; (++), (+++), and (++++) signify relative increasing intermediate detected levels; (+++++) represents the highest detected quantities; No detectable levels of a glycosylated cannabinoid compound or glycosylated cannabinoid precursor compound are indicated by “n.d.”. The experiment is classed as cell-based. As to conditions: for production of glycosylated cannabinoids or cannabinoid precursor compounds: pellet or supernatant of recombinant yeast host cells transformed with the UGT; for CBD-glc: 0.5 g/L CBD. The source says: CN3 yeast strain host cells were transformed as described in Example 1 with one of the following heterologous UGT genes: (1) AtUGT73C6, (2) AtUGT73B4, (3) AtUGT71 D1, (4) AtUGT76E12, (5) AtUGT88A1, (6) HaUGT76G1-L, (7) At5g49690, (8) AtUGT76C4, (9) CsUGT73C6, (10) SrUGT76C1, (11) AtUGT85A3, (12) AtUGT73B1, (13) Atg65550, (14) AtUGT76B1, (15) ATUGT76B1, (16) CsUGT75B2, (17) CsUGT73B4, (18) CsUGT73B1, (19) CsUGT75D1-DN11028, and (20) CsUGT71D1-DN48028. The transformed host cells were pre-grown overnight in yeast extract peptone dextrose (YPD) growth medium and then back diluted into yeast extract peptone galactose (YPG) to OD600 = 0.2. […] Strains were incubated for 20 h at 28° C. rotating at 600 RPM in an EPOCH|2 microplate reader (BioTek). Subsequently, samples were treated with an extraction solvent (80 % Acetonitrile, 20 % Methanol) for 1 hour rotating at 100 RPM. After 20 minutes centrifugation at 12,000 RPM, the supernatant was filtered with a basix 13 mm syringe filter (0.22 µm pore size, Nylon membrane) and transferred to a new tube for further analysis.
Glycosylated cannabinoid compounds and glycosylated cannabinoid precursor compounds were assayed in the supernatant and the cellular pellet employing HPLC and HPLC-MS analysis. HPLC and HPLC-MS analysis was carried out as described below to detect the following glycosylated cannabinoid and cannabinoid precursor compounds: CBGA monoglucoside, CBGA diglucoside, CBDA monoglucoside, CBDA diglucoside, CBGA glucuronic acid, CBD monoglucoside, CBD diglucoside, olivetolic acid monoglucoside (“OliAcid monoglucoside”), olivetolic acid diglucoside (“OliAcid diglucoside”).
HPLC analysis was carried out on an Agilent Technologies 1290 Infinity system, consisting of a vacuum degasser, a binary pump, a thermostated autosampler, a thermostated column compartment and a diode array detector (DAD). A Zorbax Eclipse Plus EC-18 column (2.1 × 50 mm, 1.8 µm, Agilent, USA) was used with a mobile phase composed of 0.1% formic acid in both (A) water with 0.2 % Formic Acid and (B) Acetonitrile with 0.2 % Formic Acid. The chromatographic conditions were set as follows: 0.0-8.0 min linear gradient from 5 to 95% B; 8.1-9.09 min […], 9.10-11.0 min 5 to 95% A for equilibration of the column with the initial conditions. The flow rate was set at 0.4 ml/min. The column temperature was set at 40° C. The sample injection volume was 5 µL. The UV/DAD acquisitions were carried out in the range 190-400 nm and chromatograms were acquired at 265 and 350 nm.
HPLC-MS analysis was carried out to confirm the identity of the HPLC peaks using an Agilent Technologies 6530 Accurate-Mass quadrupole time of flight (QToF) mass spectrometer operating in negative ionization (ESI -) mode. The mass spectrometer experimental parameters were set as follows: the capillary voltage was 3.5 kV, the nebulizer (N2) pressure was 35 psi, the drying gas temperature was 350° C., the drying gas flow was 11 L/min and the skimmer voltage was 65 V. Data were acquired by Agilent Mass Hunter software. The mass spectrometer was operated in full-scan mode in the m/z range 50-1100. Extracted ion chromatograms (EICs) were obtained with an accuracy of 10 ppm m/z from total ion chromatogram (TIC) employing the m/z corresponding to the molecular ions [M-H]^- 385.1504 for Olivetolic Acid Mono-Glucoside, 547.2032 for Olivetolic Acid di-Glucoside, 521.2756 for CBGA Mono-Glucoside, 683.3284 for CBGA Di-Glucoside, 535.2549 for CBGA Glucuronic Acid, 519.2600 for CBDA Mono-Glucoside, 475.2701 for CBD Mono-Glucoside, 637.3302 for CBD Di-Glucoside.
The glycosylated cannabinoid compounds and glycosylated cannabinoid precursor compounds were detected in a relative and semi-quantitative fashion. […]

[1] abbreviates: 20 h growth, detected in PELLET, 0.05 mM hexanoic acid.
The mark [2] stands for this setting: 20 h growth, detected in SUPERNATANT, 0.2 mM hexanoic acid.

B1: AtUGT76C4: UDP-glycosyl transferase from Arabidopsis thaliana, amino acid sequence SEQ ID NO: 12 (protein, listed as Arabidopsis thaliana)
chain: MEKSNGLRVILFPLPLQGCINPMIQLAKILHSRGFSITVIHTCFNAPKASSHPLFTFIQIQDGLSETETRTRDVKLLITLLNQNCESPVRECLRKLLQSAKEEKQRISCLINDSGWIFTQHLAKSLNLMRLAFNTYKISFFRSHFVLPQLRREMFLPLQDSEQDDPVEKFPPLRKKDLLRILEADSVQGDSYSDMILEKTKASSGLIFMSCEELDQDSLSQSREDFKVPIFAIGPSHSHFPASSSSLFTPDETCIPWLDRQEDKSVIYVSIGSLVTINETELMEIAWGLSNSDQPFLWVVRVGSVNGTEWIEAIPEYFIKRLNEKGKIVKWAPQQEVLKHRAIGGFLTHNGWNSTVESVCEGVPMICLPFRWDQLLNARFVSDVWMVGIHLEGRIERDEIERAIRRLLLETEGEAIRERIQLLKEKVGRSVKQNGSAYQSLQNLINYISSF
For B1, the “production of glycosylated cannabinoids or cannabinoid precursor compounds” value (from here on “production”) is “detected”. For the same molecule, under setting [1], the OLA-glc entry was “++”.

B2: AtUGT76E12: UDP-glycosyl transferase from Arabidopsis thaliana, amino acid sequence SEQ ID NO: 14 (protein, listed as Arabidopsis thaliana)
chain: MQVLGMEEKPARRSVVLVPFPAQGHISPMMQLAKTLHLKGFSITVVQTKFNYFSPSDDFTHDFQFVTIPESLPESDFKNLGPIQFLFKLNKECKVSFKDCLGQLVLQQSNEISCVIYDEFMYFAEAAAKECKLPNIIFSTTSATAFACRSVFDKLYANNVQAPLKETKGQQEELVPEFYPLRYKDFPVSRFASLESIMEVYRNTVDKRTASSVIINTASCLESSSLSFLQQQQLQIPVYPIGPLHMVASAPTSLLEENKSCIEWLNKQKVNSVIYISMGSIALMEINEIMEVASGLAASNQHFLWVIRPGSIPGSEWIESMPEEFSKMVLDRGYIVKWAPQKEVLSHPAVGGFWSHCGWNSTLESIGQGVPMICRPFSGDQKVNARYLECVWKIGIQVEGELDRGVVERAVKRLMVDEEGEEMRKRAFSLKEQLRASVKSGGSSHNSLEEFVHFIRTL
As to B2, the “production” value is “detected”. Moreover, under setting [1], the CBGA-glc entry is “+++” and the OLA-glc result is “+++”. Besides, under setting [2], the CBGA-glc result is “+” and the OLA-glc result is on record as “+++”.

B3: HaUGT76G1L: UDP-glycosyl transferase from Helianthus annuus, amino acid sequence SEQ ID NO: 2 (protein, listed as Helianthus annuus)
chain: METQTETTNTVRRNRRIIFFPLPYQGHINPMLQLANLLYSKGFSITILHTNFNKPKTSNYPHFTFKFILDNDPHDGRYSNLPLHGMGAFNRVFVFNEDGADELRHELELLMLASKEDDEHVSCLITDALWHFTQSVADSLSLPRLVLRTSSLFSFLIYASIPLLDDRGYLSLSDNTMALILDGLGYHDLSDNKRLEEQVEEFPMLKVKDIVKMGFKREKDGAGGMIDNMVKQTKTSSGIIWNSFKELEESELETIRRDIPAPSFPIPFAKHFTASSSSLLEHDRSFFPWLDQQPPKSVVYVSFGSVAQVEEKHFMEMVHGLVDSKQLFLWVVRPGFVSGSTWLEPLPDGFPGERGRIVKWAPQQEVLGHEAIGAFWTHGGWNSTLESVCEGVPMICSPFWGDQPLDARYVSDVWKVGVYLENGWKREEITGAIRRVMTDEEMRERARVLKQKLDVSLMKGGSSYESVESLVAYVSSF
Consider B3, for which the “production” value was “detected”. Under setting [1], the CBDA-glc entry was “++” and the OLA-glc entry was “++”.

B4: AtUGT73B4: UDP-glycosyl transferase from Arabidopsis thaliana, amino acid sequence SEQ ID NO: 10 (protein, listed as Arabidopsis thaliana)
chain: MNREQIHILFFPFMAHGHMIPLLDMAKLFARRGAKSTLLTTPINAKILEKPIEAFKVQNPDLEIGIKILNFPCVELGLPEGCENRDFINSYQKSDSFDLFLKFLFSTKYMKQQLESFIETTKPSALVADMFFPWATESAEKIGVPRLVFHGTSSFALCCSYNMRIHKPHKKVASSSTPFVIPGLPGDIVITEDQANVTNEETPFGKFWKEVRESETSSFGVLVNSFYELESSYADFYRSFVAKKAWHIGPLSLSNRGIAEKAGRGKKANIDEQECLKWLDSKTPGSVVYLSFGSGTGLPNEQLLEIAFGLEGSGQNFIWVVSKNENQVGTGENEDWLPKGFEERNKGKGLIIRGWAPQVLILDHKAIGGFVTHCGWNSTLEGIAAGLPMVTWPMGAEQFYNEKLLTKVLRIGVNVGATELVKKGKLISRAQVEKAVREVIGGEKAEERRLRAKELGEMAKAAVEEGGSSYNDVNKFMEELNGRK
As for B4, the “production” value is recorded as “detected”. Also, under setting [1], the “CBGA-(glc)2” value was “++”, the CBGA-glc entry is reported as “++++”, the CBGA-glucuronic acid entry was “++” and the “OLA-(glc)2” value is reported as “++”. Moreover, the OLA-glc entry under setting [1] is on record as “++++”. For the same molecule, where the note is “20 h growth, detected in PELLET”, the CBD-glc result was “++”. In addition, under setting [2], the CBGA-glc result is on record as “++”, the “OLA-(glc)2” value is given as “++” and the OLA-glc entry was “+++++”. The CBD-glc result (20 h growth, detected in SUPERNATANT) is on record as “++”.

B5: AtUGT88A1: UDP-glycosyl transferase from Arabidopsis thaliana, amino acid sequence SEQ ID NO: 6 (protein, listed as Arabidopsis thaliana)
chain: MGEEAIVLYPAPPIGHLVSMVELGKTILSKNPSLSIHIILVPPPYQPESTATYISSVSSSFPSITFHHLPAVTPYSSSSTSRHHHESLLLEILCFSNPSVHRTLFSLSRNFNVRAMIIDFFCTAVLDITADFTFPVYFFYTSGAACLAFSFYLPTIDETTPGKNLKDIPTVHIPGVPPMKGSDMPKAVLERDDEVYDVFIMFGKQLSKSSGIIINTFDALENRAIKAITEELCFRNIYPIGPLIVNGRIEDRNDNKAVSCLNWLDSQPEKSVVFLCFGSLGLFSKEQVIEIAVGLEKSGQRFLWVVRNPPELEKTELDLKSLLPEGFLSRTEDKGMVVKSWAPQVPVLNHKAVGGFVTHCGWNSILEAVCAGVPMVAWPLYAEQRFNRVMIVDEIKIAISMNESETGFVSSTEVEKRVQEIIGECPVRERTMAMKNAAELALTETGSSHTALTTLLQSWSPK
Take B5: the “production” value was “detected”. For the same molecule, under setting [1], the CBGA-glc result is recorded as “++” and the OLA-glc result is recorded as “+”.
